Test: yeast display, Sf9 membrane polyspecificity reagent, FACS + sequencing; frameworks hold sequencing errors
How it was run: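 Synthetic nanobody libraries on Saccharomyces cerevisiae BJ5465 were galactose-induced for 36–48 hours, stained 1 hour at 4 °C with 10% biotinylated, detergent-solubilized Sf9 membrane reagent and enriched on streptavidin microbeads. FACS then separated cells into low and high (top ~1%) gates by anti-HA (expression) and streptavidin (reagent binding) fluorescence. Genes were colony-PCR amplified, MiSeq 2 × 250 sequenced and CDR-length filtered. A clone's polyreactivity label is that of its gate of origin.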

| Sequence | polyreactivity (PSR sort gate) |
| --- | --- |
| QVQLVESGGGLVQAGGSLRLSCAGSGSIFYSNAMGWSRPAPGKERELVAAICWNGGRTYYADSVKGRFTISRDNAKNTVYLQMNSLKPEDTAVYYCAAKYRNRYDYWGHGTQVTVSS | low polyreactivity |
| QVQLVESAGGLVQAGGSLRLICAASGSILQPYAMGWYRQAPGKERELVAYISYSGASTYYADSVKGRFTISRDNPKNTVYLQLNSLKPEDPAVYYCNARYWYHYLTYDYSGQGTQVTVSS | high polyreactivity |
| QVQLVESGGGLVQAGGSLRLSCAASGSIFYVNTMGWYRQAPGKERELVAVIDYGGDSTYYADSVKGRFTISRDNAKNTVYLQMNSLKPEDTAVYYCAADAWLLPYNYWGQGTQVTVSS | low polyreactivity |
| QVQLVESGGGLVQAGGSLRLSCAASGSIFVHYAMGWYIQEPGKERELVARISWRGNTYYADSVKGRFTISRDNAKNTVYLQMNSLKPEDTAVYYCAKDVRRSLVNWDVVYPHGYWGQGTQVTVSS | low polyreactivity |
| QFQLVESGGGLVQAGGILRLSCAASGSTFCVYAMGWYRQAPGKERELVATINSGGSTNYADSVKGRFTISRDNAKNTVYLQMNSLKPEDTAVYYCAAGPFWQDFYVYEYDYWGQGTQVTVSS | low polyreactivity |
| QVQLVESGGGLVQAGGSLRLSCAASGSIFVAYAMGWDRQAPGKERELVAAISSSGGTTYYAYSVKGRFTISRDNAKNTVYLQMNSLKPEDTAVYYCAARDYKYYYWGQGTQVTVSS | high polyreactivity |
| QVQLVESGGGLVQAGGSLRLSCAASGRTFSYYAMGWYRQAPGKERELVAAISSGGSTNYADSVKGRFTISRDNAKNTVYLQMNSLKPEDTAVYYCATSSIWGSGRVRWVTYYYWGQGTQVTVSS | low polyreactivity |
| QVQLVESGGGLVQAGGSLRLSCAASGFTLSNNAMGWYRQAPGKERELVAGLTSGGDSTNYADSVKGRFTISRDNAKNTVYLQMNSLKREDTAVYDCAAQGGTNTPGVVESDYWGQGTQVTVSS | low polyreactivity |
| QVQLVESGGGLVQAGGSLRLSCAASGSISRFYAMGWYRQAPGKERELVAAISWSGGRPYYADSVKGRFTISRDKAKNTVYLQMNSLKPEDTAVYYCNAYRRYNDEDYWGQGTQVTVSS | high polyreactivity |
| QVQLVESGGGLVQAGGSLRLSCAASGIIFNWYAMGWYRQAPGKERELVAGISTSGGSTYYADSVKGRFTISRDNAKNTVYLQMNSLKPEDTAVYYCAARSRRYYGYDYWGQGTQVTVSS | high polyreactivity |
| QVQLVESGGGLVQAGGSLRLSCAASGSIIKYYAMGWYRQAPGKEREFVAAITASSSRTYYADSVKGRFTISRDNAKNKVYLQMNSLKPEDTAVYYCAAVGPGRRRDYWGQGTQVTVSS | high polyreactivity |
| QVQLVESCGGLVQAGGRLRLICAASGRTFTYNAMGWYIQAPGQERELVAAINFSGVSTYYADSVKGRFTISRDNAKYTVYLQMNSLKPEDTAVYSCNTVGYHYESDYWGQGTQVTVSS | high polyreactivity |
| QVQLVESGGGLVQAGGSLRLSCAASGFILATNAMGWSRQAPGKERELVAAISYAGGSTNYADSVKGRFTISRDNAKNTVYVPMNSLKPEDTAVYYCNAGGTVIWAWYCPVYSWGHGTQVTVSS | low polyreactivity |
| QVQLVESGGGLVQAGGSLRLSCAASGLTFVFYAMGWYRQAPGKETELVAAISSSGGSTNYADSVKGRFTISRDNEKNTVYLQMKSLKPEDTAVYYCAATPYYSQYDYWGQGTQVTVSS | high polyreactivity |
| QVQLVESGGGLVQAGGSLRLSCAASGRIFKRYVMGWYRKAPGKERELVAAITWRGGTYYADSVKGRFTISRDNAKNTVYLQMNSLKPEDTAVYYCAADTYFSGAGGQAYQYDYWGLGTQVTVSS | high polyreactivity |
| QDQLVESVGGLVQAGCSLRLSSAASVSIFVIYAMGWYRQAPGNERELVAAISWNGGSTFYADSVKGRITISRDNAKNTVYLQMNSQKPEDTAVYYCNTVASYYRWKSYYYWGQGTQVTVSS | high polyreactivity |
| QVQLVESGGGLVQAGGSLLLSCAASGSTFYLYAMGWYRQAPGKEMELVASISQSGGSTFYADSVKGRFTISRDNAKYTVYLQMNSLKPEDTAVYYCAADPNRSTDTVVPGFDYWGQGTQVTVSS | high polyreactivity |
| QVQLVESGGGLVQAGGSLRLSCAASGRIFYYNAIGWYRQAPGKERELVATITRAGGTYYADSVKGRFTISRDNAKNTVYLQMNSLKPEDTAVYYCAKRHPIVDDYKGDYWGQGTQVTVSS | low polyreactivity |
| QVQLVESGGGLVQAGGSLRLSCAASGRTFTTYAMGWYRQAPGKERELVAAITSGGSTNYADSVKGRFTISRDNAKNTVYLQMNSLKPEDTAVYYCAARFRVYTYSQRHWREFGYWGQGTQVTVSS | high polyreactivity |
| QVQLVESGGGLVQAGGSLRLSCAASGSTFRGYAMGWYRQAPGKERELVASISWSGGSTYYADSVKGRFTISRDNAKNTVYLQMNSLKPEDTAVYYCAARKRWRNIRMDYWGQGTQVTVSS | high polyreactivity |
| IILPGGRILLSCAASGRTFSGYGLGWYRQAPVKERELIADITSGGSTYYADSVKGRFTISRDNAKNTVYLQMNILIPVDTAVYYCAAERQIRSFWSSRTYEFGYWGQGTQVNVSS | low polyreactivity |

| Sequence | polyreactivity (PSR sort gate) |
| --- | --- |
| QVQLVESGGGLVQAGGSLRLSCAASGYTFQENAMGWYRQAPGKERELVAAISYGGGSTYYADSVKGRFTISRDNAKNTVYLQMNRLKPEDTAVYYCADDGGSAYAWYFAELYGYWGQGTQVTVSS | low polyreactivity |
| QVHLVESGGGLVQAGGSLRLSCAASGSTFVTNAMGWYRQAPGKERELVAAITSGAGTYYADSVKGRFTISRDNAKNTVYLQMNSLKPEDTAVYYCAARRYYSRGRYRFGYWGQGTQVTVSS | high polyreactivity |
| QVQLVESGGGLVQAGGSLRLSCAASGSIFKLYAMGWYRQAPGKERELVASISVSGGSTYYADSVKGRFTISRDNAKNTVYLQMNSLKPEDTAVYYCAAEKRSSIVGSGGNYWGQGTQVTVSS | low polyreactivity |
| QVQLVESGGGLVQEGGSLRVSCAASGRTFRWYTMGWYRQAPGKEREFVAAITWSGSSTNYADSVKGRFTISRDNAKNTVYLQMNSLKPEDTAVYYCAGEKRRRRDDYWGQGTHVTVSS | high polyreactivity |
| QVQLVESGGGLVQAGGSLRLSCAASGITFSPYTRGWYRQATGKERELVAAINDGAITYYADSVKGRFTISRDNAKNTVYLQMNSQKPEDTAVYYCAAAAWGTDPFSTDYASYDYWGQVTQVTVSS | low polyreactivity |
| QVQLVESGGGLVQAGGSLRLSCAASGSIFDINVMGWYRQAPGKERELVAAITSGGRTNYADSVKGRFTISRDNAKNTVYLQMNSLKPEDTAVYYCAAVRHRQTYPKYNYWGQGTQVTVSS | high polyreactivity |
| QVQLVESGGGLVQAGGSLRLSCAASGRIFAYYAMGWYRQAPGKERELVAAISSSGVSTSYADSVKGRFTISRDNAKNTVYLQMNSLKPEDTAVYYCAASPGGRPYFNHDSWGQGTQVTVSS | low polyreactivity |
| QVQLVESGGGLVQAGGSLRLSCAASGSTFGRNTMGWYRQAPGKERELVAAITSGDTTTYADSVKGRFTISRDNAKNTVYLQMNSLKPEVTAVYYCAVDPVRGRDYSWMDYWGQGTQVTVSS | low polyreactivity |
| QVQLVESGGGLVQAGGSLRLSSASSGNILQGNAMGSYRQAPGKEMELVAAITSDGSTYADSVKGRFTISRDNAQNTVYLQMNSLKPEDTAVFYCNADGITSLPVTALDYWGQGTQVTVSS | low polyreactivity |
| QVQLVESGGGLVQAGGSLRLSCAASGRTFGYYDMGWYRPAPGKERELVAAITWIDGRTYYADSVKGRFTISRDNAKNTVYLQMNSLKPEDTAVYYCAKRHKAGFYRTYRYGYWGQGTQVTVSS | high polyreactivity |
| QVQLVESGGGLVQAGGSLRLSCAASGSTFGGNAMGWYRQAPGKERELVAAIDSGGGTNYADSVKGRFTISRDNAKNTVYLQMNSLKPEDTAVYYCNADWAVRSTQNSSSGHVYWGQGTQVTVSS | low polyreactivity |
| QVQLVESGGGLVQAGGSLRLSCAASGSIFGYNAMGWYRQAPGKDREFVAAIRWSSGSTYYADSVKGRFTISRDNAKNTVYLQMNSLKPEDTAVYYCATRQTYLYWGQGTQVTVSS | high polyreactivity |
| QVQLVESGGGLVQEGGSLRLSCAASGRIYARNAMGWYRQAPGKERDLVAAIRNSDGSTYYADSVNGRFTISRDNAKNSVYLQMNSLKPEDTAVYYCNTVPYPAYLARMDYWGQGTQVTVSS | high polyreactivity |
| QVHLVESGGGLVQAGGSLRLSCAASGRIFNYYAMGWYRQAHGKERELVAAISNGGSTYYADSVKGRFTISRDNAKNTVYLQMNSLKPEDTAVYYCNAAARNGYARRVYYWGQGTQVTVSS | high polyreactivity |
| QVQLVESGGGLVQAGGSLRLIGAASGRSLYVYEMGWYRQAPGNDRELVAAISRGGGRTYYADSVKRRFTISRDKAKNTVYVQRNSLKPEDTAVYYGAAPLLIGVSTYRIAPRSGYWGQGTQVTLSS | high polyreactivity |
| QVQLVESGGGLVQAGGSLRLSCAASGTTFVKNDMGWYRQAPGKERELVAAISGGSTNYADSVKGRFTISRDNAKNTVYLQMNSLKPEDTAVYYCAAVQWYTSIEGIQPYYYWGQGTQVTVSS | low polyreactivity |
| QVQLVESGGGIVQAGGSLRLSCAASGRTIPYHAMGWYRQAPGKERELDAAISYSGGRTYYADCVKGRFTISRDNAKNSVYLLMNSLKPDDTAVYYCNALGSGREDVYWGQGTQVTVSS | high polyreactivity |
| QVQLVESGGGLVQAGGSLRLSCAASGRIFATNAMGWYRQAPGKERELVAAISDGGGSTYYADSVKGRFTISRDNAKNTVYLQMNSLKPEDTAVYYCAARVLDWRGDIHDSEYWGQGTQVTVSS | low polyreactivity |
| QVQLVESGGGLVQAGGSLRLSSAASGRIFYNYAMGWYRQAPGKERELVAAISVSGGSTYYADSVKGRFTISRDNAKNTVYLQMNSLKPEDTAVYYCAAGRGYTYNYWGQGSQVTVSS | high polyreactivity |
| QVQLVESGGGLVQAGGSLRLSCAASGRIFYDYTMGWYRQAPGKERELVAAINSGGGSTYYADSVKGRFTISRDNAKNTVYLQMNSLKPEDTAVYYCNADGQWNIWEYDYWGQGTQVTVSS | high polyreactivity |

Reference: the nanobody polyreactivity screen of Harvey et al. (2022)
